Source: article PMC9393700

Experiments:
Experiment in all cases: SEC; Superdex S200 16/600 column; purified F proteins (Figure 2A)
[1] = molecular target: trypsin-treated hMPV B2 F (human metapneumovirus B2)
[2] = molecular target: RSV A2 F DsCav1 (trimer) (respiratory syncytial virus A2)
[3] = molecular target: RSV head hMPV stem construct 1 (RHMS-1) (respiratory syncytial virus (RSV-A in Figure 1B) | human metapneumovirus (hMPV-A1 in Figure 1B)) (UniProt P03420)

Substance: trypsin-treated hMPV B2 F (natural protein)
- stoichiometry N [1]: 3

Substance: RSV A2 F DsCav1 (trimer) (natural protein)
- stoichiometry N [2]: 3

Substance: RSV head hMPV stem construct 1 (RHMS-1) (from UniProt P03420 1-25; P03420 55-314)
- stoichiometry N [3]: 3
